Publication PMC10182836

Molecular target: H3-tailless nucleosomes (nucleosomes with the first 33 residues of H3 removed) (human) (UniProt P04908)

fold reduction of S1/2 on H3-tailless nucleosomes	Substance
1.3 fold	Cbf1ΔN (residues 209–351) (from UniProt P17106 209-351) (domain or fragment)
3.1 fold	Pho4ΔN (AA 250–312) (from UniProt P07270 250-312) (domain or fragment)
